First the molecules themselves.
B1: Mutation 1-1 (antibody)
heavy: EVQMVESGGGLLKPGGSLKLSCAASGFTFSNYAMSWVRQTPEKRLEWVATISSGGSYSFYPDSVKGRFTISRDNAKNTLYLQMLSLRSEDTAMYYCARRDNYYGSSFMDYWGQGSSVTVSSAKTTPPSVYPLAPGSAAQTNSMVTLGCLVKGYFPEPVTVTWNSGSLSSGVHTFPAVLQSDLYTLSSSVTVPSSTWPSQTVTCNVAHPASSTKVDKKIVPRDCGCKPCICTVPEVSSVFIFPPKPKDVLTITLTPKVTCVVVDISKDDPEVQFSWFVDDVEVHTAQTKPREEQFNSTFRSVSELPIMHQDWLNGKEFKCRVNSAAFPAPIEKTISKTKGRPKAPQVYTIPPPKEQMAKDKVSLTCMITNFFPEDITVEWQWNGQPAENYKNTQPIMDTDGSYFVYSKLNVQKSNWEAGNTFTCSVLHEGLHNHHTEKSLSHSPG
light: DIQMTQTSSSLSASLGDRVTISCRASQEITNYLNWYQQKPDGTIKLLIYYTSRIHSGVSSRFSGSGSGTDYSLTISNLEQEDIATYFCQQGHTLPLTFDTGTKLELKRADAAPTVSIFPPSSEQLTSGGASVVCFLNNFYPKDINVKWKIDGSERQNGVLNSWTDQDSKDSTYSMSSTLTLTKDEYERHNSYTCEATHKTSTSPIVKSFNRNEC
notes: assembled FR/CDR/constant
B2: Mutation 1-7 (antibody)
heavy: EVQMVESGGGLLKPGGSLKLSCAASGFTFSNYAMSWVRQTPEKRLEWVATISSGGSYSYYPDSVKGRFTISRDNAKNTLYLQMLSLRSEDTAMYYCARRDNYFGSTFMDYWGQGSSVTVSSAKTTPPSVYPLAPGSAAQTNSMVTLGCLVKGYFPEPVTVTWNSGSLSSGVHTFPAVLQSDLYTLSSSVTVPSSTWPSQTVTCNVAHPASSTKVDKKIVPRDCGCKPCICTVPEVSSVFIFPPKPKDVLTITLTPKVTCVVVDISKDDPEVQFSWFVDDVEVHTAQTKPREEQFNSTFRSVSELPIMHQDWLNGKEFKCRVNSAAFPAPIEKTISKTKGRPKAPQVYTIPPPKEQMAKDKVSLTCMITNFFPEDITVEWQWNGQPAENYKNTQPIMDTDGSYFVYSKLNVQKSNWEAGNTFTCSVLHEGLHNHHTEKSLSHSPG
light: DIQMTQTSSSLSASLGDRVTISCRASQEITNYLNWYQQKPDGTIKLLIYYTSRIHSGVSSRFSGSGSGTDYSLTISNLEQEDIATYFCQQGHTIPLTFDTGTKLELKRADAAPTVSIFPPSSEQLTSGGASVVCFLNNFYPKDINVKWKIDGSERQNGVLNSWTDQDSKDSTYSMSSTLTLTKDEYERHNSYTCEATHKTSTSPIVKSFNRNEC
notes: assembled FR/CDR/constant
B3: Mutation 1-2 (antibody)
heavy: EVQMVESGGGLLKPGGSLKLSCAASGFTYSNYAMSWVRQTPEKRLEWVATISSGGSYSFYPDSVKGRFTISRDNAKNTLYLQMLSLRSEDTAMYYCARRDNYPGSTFMDYWGQGSSVTVSSAKTTPPSVYPLAPGSAAQTNSMVTLGCLVKGYFPEPVTVTWNSGSLSSGVHTFPAVLQSDLYTLSSSVTVPSSTWPSQTVTCNVAHPASSTKVDKKIVPRDCGCKPCICTVPEVSSVFIFPPKPKDVLTITLTPKVTCVVVDISKDDPEVQFSWFVDDVEVHTAQTKPREEQFNSTFRSVSELPIMHQDWLNGKEFKCRVNSAAFPAPIEKTISKTKGRPKAPQVYTIPPPKEQMAKDKVSLTCMITNFFPEDITVEWQWNGQPAENYKNTQPIMDTDGSYFVYSKLNVQKSNWEAGNTFTCSVLHEGLHNHHTEKSLSHSPG
light: DIQMTQTSSSLSASLGDRVTISCRASQEITNYLNWYQQKPDGTIKLLIYYTSRIHSGVSSRFSGSGSGTDYSLTISNLEQEDIATYFCQQGNTIPLTFDTGTKLELKRADAAPTVSIFPPSSEQLTSGGASVVCFLNNFYPKDINVKWKIDGSERQNGVLNSWTDQDSKDSTYSMSSTLTLTKDEYERHNSYTCEATHKTSTSPIVKSFNRNEC
notes: assembled FR/CDR/constant
B4: Mutation 1-5 (antibody)
heavy: EVQMVESGGGLLKPGGSLKLSCAASGFTFSNYAMSWVRQTPEKRLEWVATISSGGSYSFYPDSVKGRFTISRDNAKNTLYLQMLSLRSEDTAMYYCARRDNYFGSSFMDYWGQGSSVTVSSAKTTPPSVYPLAPGSAAQTNSMVTLGCLVKGYFPEPVTVTWNSGSLSSGVHTFPAVLQSDLYTLSSSVTVPSSTWPSQTVTCNVAHPASSTKVDKKIVPRDCGCKPCICTVPEVSSVFIFPPKPKDVLTITLTPKVTCVVVDISKDDPEVQFSWFVDDVEVHTAQTKPREEQFNSTFRSVSELPIMHQDWLNGKEFKCRVNSAAFPAPIEKTISKTKGRPKAPQVYTIPPPKEQMAKDKVSLTCMITNFFPEDITVEWQWNGQPAENYKNTQPIMDTDGSYFVYSKLNVQKSNWEAGNTFTCSVLHEGLHNHHTEKSLSHSPG
light: DIQMTQTSSSLSASLGDRVTISCRASQEITNYLNWYQQKPDGTIKLLIYYTSRIHSGVSSRFSGSGSGTDYSLTISNLEQEDIATYFCQQGHTLPLTFDTGTKLELKRADAAPTVSIFPPSSEQLTSGGASVVCFLNNFYPKDINVKWKIDGSERQNGVLNSWTDQDSKDSTYSMSSTLTLTKDEYERHNSYTCEATHKTSTSPIVKSFNRNEC
notes: assembled FR/CDR/constant
B5: Mutation 1-8 (antibody)
heavy: EVQMVESGGGLLKPGGSLKLSCAASGFTYSNYAMSWVRQTPEKRLEWVATISSGGSYSYYPDSVKGRFTISRDNAKNTLYLQMLSLRSEDTAMYYCARRDNYFGSSFMDYWGQGSSVTVSSAKTTPPSVYPLAPGSAAQTNSMVTLGCLVKGYFPEPVTVTWNSGSLSSGVHTFPAVLQSDLYTLSSSVTVPSSTWPSQTVTCNVAHPASSTKVDKKIVPRDCGCKPCICTVPEVSSVFIFPPKPKDVLTITLTPKVTCVVVDISKDDPEVQFSWFVDDVEVHTAQTKPREEQFNSTFRSVSELPIMHQDWLNGKEFKCRVNSAAFPAPIEKTISKTKGRPKAPQVYTIPPPKEQMAKDKVSLTCMITNFFPEDITVEWQWNGQPAENYKNTQPIMDTDGSYFVYSKLNVQKSNWEAGNTFTCSVLHEGLHNHHTEKSLSHSPG
light: DIQMTQTSSSLSASLGDRVTISCRASQEITNYLNWYQQKPDGTIKLLIYYTSRIHSGVSSRFSGSGSGTDYSLTISNLEQEDIATYFCQQGHTIPLTFDTGTKLELKRADAAPTVSIFPPSSEQLTSGGASVVCFLNNFYPKDINVKWKIDGSERQNGVLNSWTDQDSKDSTYSMSSTLTLTKDEYERHNSYTCEATHKTSTSPIVKSFNRNEC
notes: assembled FR/CDR/constant
B6: Mutation 1-6 (antibody)
heavy: EVQMVESGGGLLKPGGSLKLSCAASGFTYSNYAMSWVRQTPEKRLEWVATISSGGSYSFYPDSVKGRFTISRDNAKNTLYLQMLSLRSEDTAMYYCARRDNYYGSSFMDYWGQGSSVTVSSAKTTPPSVYPLAPGSAAQTNSMVTLGCLVKGYFPEPVTVTWNSGSLSSGVHTFPAVLQSDLYTLSSSVTVPSSTWPSQTVTCNVAHPASSTKVDKKIVPRDCGCKPCICTVPEVSSVFIFPPKPKDVLTITLTPKVTCVVVDISKDDPEVQFSWFVDDVEVHTAQTKPREEQFNSTFRSVSELPIMHQDWLNGKEFKCRVNSAAFPAPIEKTISKTKGRPKAPQVYTIPPPKEQMAKDKVSLTCMITNFFPEDITVEWQWNGQPAENYKNTQPIMDTDGSYFVYSKLNVQKSNWEAGNTFTCSVLHEGLHNHHTEKSLSHSPG
light: DIQMTQTSSSLSASLGDRVTISCRASQDITNYLNWYQQKPDGTIKLLIYYTSRLHSGVSSRFSGSGSGTDYSLTISNLEQEDIATYFCQQGNTIPLTFDTGTKLELKRADAAPTVSIFPPSSEQLTSGGASVVCFLNNFYPKDINVKWKIDGSERQNGVLNSWTDQDSKDSTYSMSSTLTLTKDEYERHNSYTCEATHKTSTSPIVKSFNRNEC
notes: assembled FR/CDR/constant
B7: Mutation 1-3 (antibody)
heavy: EVQMVESGGGLLKPGGSLKLSCAASGFTFSNYAMSWVRQTPEKRLEWVATISSGGSYSYYPDSVKGRFTISRDNAKNTLYLQMLSLRSEDTAMYYCARRDNYPGSSFMDYWGQGSSVTVSSAKTTPPSVYPLAPGSAAQTNSMVTLGCLVKGYFPEPVTVTWNSGSLSSGVHTFPAVLQSDLYTLSSSVTVPSSTWPSQTVTCNVAHPASSTKVDKKIVPRDCGCKPCICTVPEVSSVFIFPPKPKDVLTITLTPKVTCVVVDISKDDPEVQFSWFVDDVEVHTAQTKPREEQFNSTFRSVSELPIMHQDWLNGKEFKCRVNSAAFPAPIEKTISKTKGRPKAPQVYTIPPPKEQMAKDKVSLTCMITNFFPEDITVEWQWNGQPAENYKNTQPIMDTDGSYFVYSKLNVQKSNWEAGNTFTCSVLHEGLHNHHTEKSLSHSPG
light: DIQMTQTSSSLSASLGDRVTISCRASQDITNYLNWYQQKPDGTIKLLIYYTSRLHSGVSSRFSGSGSGTDYSLTISNLEQEDIATYFCQQGHTLPLTFDTGTKLELKRADAAPTVSIFPPSSEQLTSGGASVVCFLNNFYPKDINVKWKIDGSERQNGVLNSWTDQDSKDSTYSMSSTLTLTKDEYERHNSYTCEATHKTSTSPIVKSFNRNEC
notes: assembled FR/CDR/constant
B8: Mutation 1-4 (antibody)
heavy: EVQMVESGGGLLKPGGSLKLSCAASGFTYSNYAMSWVRQTPEKRLEWVATISSGGSYSYYPDSVKGRFTISRDNAKNTLYLQMLSLRSEDTAMYYCARRDNYFGSTFMDYWGQGSSVTVSSAKTTPPSVYPLAPGSAAQTNSMVTLGCLVKGYFPEPVTVTWNSGSLSSGVHTFPAVLQSDLYTLSSSVTVPSSTWPSQTVTCNVAHPASSTKVDKKIVPRDCGCKPCICTVPEVSSVFIFPPKPKDVLTITLTPKVTCVVVDISKDDPEVQFSWFVDDVEVHTAQTKPREEQFNSTFRSVSELPIMHQDWLNGKEFKCRVNSAAFPAPIEKTISKTKGRPKAPQVYTIPPPKEQMAKDKVSLTCMITNFFPEDITVEWQWNGQPAENYKNTQPIMDTDGSYFVYSKLNVQKSNWEAGNTFTCSVLHEGLHNHHTEKSLSHSPG
light: DIQMTQTSSSLSASLGDRVTISCRASQEITNYLNWYQQKPDGTIKLLIYYTSRIHSGVSSRFSGSGSGTDYSLTISNLEQEDIATYFCQQGNTLPLTFDTGTKLELKRADAAPTVSIFPPSSEQLTSGGASVVCFLNNFYPKDINVKWKIDGSERQNGVLNSWTDQDSKDSTYSMSSTLTLTKDEYERHNSYTCEATHKTSTSPIVKSFNRNEC
notes: assembled FR/CDR/constant; Same printed sites as Mutation 1-40

Broadly, the Kd is a measure of binding affinity in units of concentration. The koff is the first-order rate constant of dissociation. Usually kon stands for the second-order rate constant of association.

T1 sequence (P19429 whole entry): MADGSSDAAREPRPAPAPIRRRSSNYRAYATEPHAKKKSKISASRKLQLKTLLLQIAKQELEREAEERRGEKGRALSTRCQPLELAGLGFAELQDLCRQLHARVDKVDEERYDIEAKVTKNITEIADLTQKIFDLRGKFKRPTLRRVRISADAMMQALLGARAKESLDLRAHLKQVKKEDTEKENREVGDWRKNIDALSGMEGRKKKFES

This test addresses T1, CTNI quality control recombinant antigen (human, UniProt P19429 1-210, limits assumed).
T1 construct: Recombinant antigen produced by the applicant; also called CTNI quality control recombinant protein (antigen produced by the company); cardiac troponin I
Kind of test: BLI, antibody on AMC sensor, cTnI in solution. On the procedure: With an AMC sensor, the purified antibody was diluted to 10 μg/ml with PBST, and CTNI quality control recombinant protein (antigen produced by the company) was gradient diluted with PBST to 769.2 nmol/ml, 384.6 nmol/ml, 192.3 nmol/ml, 96.2 nmol/ml, 48.1 nmol/ml, 24 nmol/ml, 12 nmol/ml, and 0 nmol/ml.
For the molecule B1, the Kd was 3.47 nM, the koff amounted to 0.000124 s⁻¹ and the kon is 35800 M⁻¹ s⁻¹.
The matching figures for B2: 4.71 nM, 0.000186 s⁻¹ and 39400 M⁻¹ s⁻¹.
As for B3, the Kd turned out to be 2.43 nM, the off-rate constant (koff) stood at 0.000129 s⁻¹ and the kon is 53200 M⁻¹ s⁻¹.
The matching figures for B4: 0.83 nM, 0.000807 s⁻¹ and 972000 M⁻¹ s⁻¹.
As to B5, the Kd amounted to 6.81 nM, the off-rate constant (koff) was found to be 0.000667 s⁻¹ and the kon was 98000 M⁻¹ s⁻¹.
The matching figures for B6: 9.81 nM, 0.000275 s⁻¹ and 28000 M⁻¹ s⁻¹.
For B7 the same measures were 4.58 nM, 5.73e-05 s⁻¹ and 12500 M⁻¹ s⁻¹.
As for B8, the Kd amounted to 7.1 nM, the koff is 0.00053 s⁻¹ and the kon stood at 74600 M⁻¹ s⁻¹.

These data come from US20250145694A1 (GUANGDONG FEIPENG BIOLOGICAL, published 2025).
